Assay results from the DeepSol protein solubility set.

test: soluble on expression in E. coli; label from the status in PepcDB or PDB records

Row | Sequence | soluble on expression in E. coli
1 | MITSPTNLNSLPIPPGDFGLPWLGETLNFLNDGDFGKKRQQQFGPIFKTRLFGKNVIFISGALANRFLFTKEQETFQATWPLSTRILLGPNALATQMGEIHRSRRKILYQAFLPRTLDSYLPKMDGIVQGYLEQWGKANEVIWYPQLRRMTFDVAATLFMGEKVSQNPQLFPWFETYIQGLFSLPIPLPNTLFGKSQRARALLLAELEKIIKARQQQPPSEEDALGILLAARDDNNQPLSLPELKDQILLLLFAGHETLTSALSSFCLLLGQHSDIRERVRQEQNKLQLSQELTAETLKKMPYLDQVLQEVLRLIPPVGGGFRELIQDCQFQGFHFPKGWLVSYQISQTHADPDLYPDPEKFDPERFTPDGSATHNPPFAHVPFGGGLRECLGKEFARLEMKLFATRLIQQFDWTLLPGQNLELVVTPSPRPKDNLRVKLHSLM | soluble
2 | QHGSSTDPSFVALRNNSSLSCDGKSRLLEFGNDLGFSKEETDVLAKQKNWEQNYTNFKKQFEHKLLDPKSFSLTDVYNLFSGFQQSVADTVKLMNELQTQVNKANDIYPVESFQVPKVPQKLFGFVDQGFFPKLNPKGLNIADNVASLFEKYSLKQATLKDFDIVLEKKNDIVLEHKVRYNFALQ | not soluble
3 | MSLDAAQAMSKIPVIGKIVKAITFIEIKEEKDQSSIDVKTPALSGLSNKELENSINEKYLKESQQLYKEFIQSTSKNKKGHLSIYSDYETVTDTPDLLSIRRNIETTQASSYTQSRYITIDKKNDILLTLKSLFKDERYIKVISQNIKEQMKQQMKEDPNKIYWLTDEDAEPFKTILPDQTFYITEDHKLVISFDEYEVAPGYMGVTEFTIPTGVISNLLVGERYIREGHHHHHH | soluble
4 | MATVHKVGDSTGWTTLVPYDYAKWASSNKFHVGDSLLFNYNNKFHNVLQVDQEQFKSCNSSSPAASYTSGADSIPLKRPGTFYFLCGIPGHCQLGQKVEIKVDPGSSSA | soluble
5 | MIHTEPSAQPSTMDTAAFLKHIESAFRRIFSDGIDLMRYLPEDKWLALKQAGLLLPFLDKKYGGRKGSQFEIQEVLRIAGHYGVPVTLRTGIEGALVLQPLQEFGDEAQVAQGLEMIFKGEGGGLGVTEPETSGAAIAREMQSYYEYIDGQTIYVNAAKYWQGNSQSDFLLVAAKERKNGKLAKVIDLLLVPKTYIRCETLASEGLRAVRYAVNRIDAEMPATAVMKLSQSDAAGLRAFQNIFIRSRLQLIGMTHGIMEYILENLERYVRNDIKFVDYERREIRRRHQVSEILYRYVCHSVSPVAPVAHQLMEANIVKTLATEYTYAAAQMLQKLLGAKGFERGHTAGNIAIDIRPFTIFEGPNDMLYAEIYDQFVRATAEEKEAGMKLDKNQTLLDRLQTDARFAAVARDYTLPEDIRSFLQEHTLTDACALQKVFIGKIIARLFVFVQAKHEDTAAFLLNDIRKDILDCRYCG | not soluble
6 | MSLNVKIAALASHSALDVFDGAKDEGFQTIGLCKKGRERPYLEFKAIMDKCIILEDFKEIISDKVQSILLSENAIIVPNRSLAVYVGYDGIEKMKTKVFGNRYMLRWEERIGEKNYYKILNEAKISIPKLFKPEEIDRPVIVKLPEAKRKVERGFFFAVNKEDFEAKLNELLRNNVIDNEGLKNMVIEEFVFGAHFNLNYFYSPIFNRLELISVDRRIQSDWDSLYRLPADIQIKLGRIPKLIEVGHEPVTIRESLLEKVFEIGYRFVDATQKLEPPGIIGPFTLQVMVTPDLDLVVYDVAPRIGGGTNVYMGTGSQYSKFYFGKPISLGRRIALEIKHAIINNLTEKILTEGHHHHHH | soluble
7 | MPASSTSSPSSKEEDEKHTSADEDVTPTASPSLVKSEVVKEEENDDADRTLTMPSTSQDIQPESSPAHGRSAPSSQEITSPPTVRRVATPLEAAEQEYYYFTTDMINQAALDIEREKEKFDSLITWYKLQRDDVPALGTSSVGNSTAPSYVSEKGSTTPMSSQPSSHQSGTSSTNGAHGGLNGFSCSPFGLENNPRSNDPMQCMSSPVELDEICPTLEDFMSSAASSSTPSTSSAPQMNQNQNTHPNSINHHHQPDTSLLMLNNHHSSPLNQLSFNHQMPSTSNSNPPSNASLKRRATEEFGNDGPMKQAKIEGSENDNNPMRKLEMMANSSNFRGGNTINEVVEASKKDERTLKMEKLDVIGKSVGEEFAQQAREAQMRQMQQAAAAAGSMPPSYPSPGQYPGPMHYPGMPPMMPPGAPFSAGASYPPMGGPFPPNPYGMHPGMTPGGYPMSAPGKMPFGSPSFPQSAPSPAAMAAMQQGRMPGPPMPPHMMTPQQQQHFMQMQQAQMAHFNAQKAAAAAAAAGMSPAARASPMGASPSPHHPHPSQFPPNHPANPMYHHHIMMMRAMHAQGGQPGHPGMMPPGMMPPGMMPPGMMPPGMHPGMAGMPPMHPGMQGMPPMHPGMQGMPGMPHGPPQPPQNPALMVAGNRAGSAEAAAAQMGNPHHPMMGANMWQLTPHYPPPLPASSSSGAGTPVSR | not soluble
8 | NEFELGTRGSSRVDLQEQRSVKTRVSLDDLFEQIKQGEMKELNLIVKADVQGSVEALVAALQKIDVEGVRVKIIHAAVGAITESDISLATASNAIVIGFNVRPDANAKRAAESEKVDIRLHRIIYNVIEEIEAAM | soluble
9 | MGSDKIHHHHHHMKITFGQQTTKVKQLADKISFDISMGVYKSGDSLPSINQLSQAYEVSRDTVFKAFLDLKERGIIDSTPGKGYYVVGRLKNVLLLLDEYSPFKYALYNSFVKRLSIRYKVDLLFHQYNERLFNTIIRESLGRYNKYIVMNFDNEKLSPNLYKINPSKLLLLDFGKFEKEGFSYVCQDFDQGFYNALFQLADRLRKYQKLVFVLVDDSMHPRSSRDFFERFCADQHLGCEVVSDIEGLQVRRGEVYIAIRQIDVVSIIKKSRVEGLQCGVDFGLIGYNDTPAYEVIDQGITALSVDWEKMGDKAAEFVLQGKTIQDYLPTEVRLRASL | not soluble
10 | MGSDKIHHHHHHMTTSSVRYPQRVRNELRFRELIVLRVERISAGFQRIVLGGEALDGFISLGFDDHTKVFFPEPGCRFTPPTVTEEGIIWGEGVRPVSRDYTPLYDEARRELALDFFIHDGGVASRWAMEAREGDTLTIGGPRGSLVVPEEYACQVYVCDESGMPALRRRLESLSRLPVRPAVTALVSIQDAAYRDYLAHLTDITVEYVVGGDEQAMQTRLSQLTIPESDYFIWITGEGKTVKRLSQCFEKGFDPHLVRAAAYWHRK | not soluble
11 | MSTFKPLKILASRRQVLKAGLAAMTLSGVASQVSAKEQPLKTSNGHSKPAAKKAGGRRIVMLDPGHGGIDTGAIGHNGSKEKHVVLAIAKNVRSILRSNGIDARLTRTGDTFIPLYDRVEIAHQHGADLFMSIHADGFTNPSAAGASVFALSNRGASSAMAKYLSDRENRADEVAGKKATDKDHLLQQVLFDLVQTDTIKNSLTLGSHILKKIKPVHKLHSRNTEQAAFVVLKSPSIPSVLVETSFITNPNEEKLLGTTAFRQKIATAIANGIISYFHWFDNQKAHSKRR | not soluble
12 | MGSDKIHHHHHHMKITLNSVSFRYNGDYVLKDVNAEFETGKIYVVVGKNGSGKTTLLKILAGLLEAEGEIFLDGSPADPFLLRKNVGYVFQNPSSQIIGATVEEDVAFSLEIMGLDESEMRKRIKKVLELVGLSGLEKEDPLNLSGGQKQRLAIASMLARDTRFLALDEPVSMLDPPSQREIFQVLESLKNEGKGIILVTHELEYLDDMDFILHISNGTIDFCGSWEEFVEREFDDVEIPFKWKLWKKCGKINLWEDRYENSGNQRRRDTV | not soluble
13 | MKVRADFAFEKVARDWFVRWSKGRSEKYAGQVMRNFERWVFPAIGNLDIRQVRTADVVGCLRVMEARGIVDTLRKTKNSLKMVFAFAVGSGMMEINPVAQIGSGVFERLEHHHHHH | soluble
14 | MSYSPSLKEIIAILQKYTSKNYQSNCKTRPDGKLELSLNGVFEEIVKTPGKTRYVTHKQLDQKLKDFKQDLMVELHDTFATKTDLKESEARINQKLEALIQIVMVQGEQIKVHGEQINKLTQAVEKQGEKIEAQGQQIQKVNETLNFVVESLGSIHKRLDSMEGRLDSMENRLDKLESK | soluble
15 | MSLTTPLYPIILAGGSGTRLWPLSRQNFPKQFLKLNGELSLIQQTMKRAMGLPGNQTIIVSNDAHYFICQDQLQDFNAQTTYLLEPCARNTAPAIACAAHYLANTVGKDAVMLVLPSDHWIADDEIWLAAMLEGGQFASENNAIVTFGIKPDSPKTGYGYIEAGTTLSSDIKQVLSFREKPDAHTAAQFVSKGNYFWNSGMFICRAGVYLEELEQFETDIYQFSQQALTLAQHHHDFLRLDLDCFSQCKEESIDYAIMEKTDKAVVIPISIQWSDLGCWTAVADANKQDEQGNTLIGNVIAQDSHNCLINSEELLVTTVGIQDQIIVATSDAVLVADKRYSQQVKDLVHSLRKDHPHLTQDHQRVPRPWGYYEVLAEGTSFKVKRLMVKPGAKLSLQTHQHRAEHWVIVGGEAEVVNGNNTFRLSKNQSTYIPKNALHRLSNPHNEPLYVIEVQSGSYLGEDDIKRFDDIYLRKEVEEGHHHHHH | soluble
16 | MGSDKIHHHHHHMTFLFFQPSSNIIKPYALMDLDDTLFQTQRKIDAWELPTTEPENLVCATVNKQGEPLSFMSQRQAAFFNWLLASTELIAVTARDRLEIKRVKLLFNSWQVLTHGAVILTSDGEPLSTWQQHMYNALIPLQDKINQLTEWVNSYSKESDRTHNDLKLTPHTDTFIDSELTIYLAIKHTQKDHQALAELATQLPTLIPDFDAHFYVHVNANNLAILPHAVHKRHAVQFLLEQHLDHQRPSFGFGDSLADLPFLQLLDWYGMPNHGQLHTQQ | not soluble
17 | MGSDKIHHHHHHMTDPFFLSDSGLLESYRAPKWLPGGNAQTIFPYFINLSPIISYRRERWEMDDGDFIDIDWLDGESDKPLVIMLHGLEGSSQSHYALSLMNLLQMLRWRGAVVHFRGCSGYSNRLPRAYHAGDSMEIDRMLRHIAHRNDSHEWNTPCYVVGVSLGGNALLKWLGEQGAQAARQIAGVVAVSVPLDLAAAGKVLDSGFNRVYTHHFLTTLKRKALEKNRQFPGLLNARAVAACRSLYEFDNLVTAPLHGFRDTDDYWRQSSSKPWLGSVQVPTLLINARNDPFLPESVLPQKSEVSSFVSLEFPQQGGHVGFIQGTFPGKLDWLPQRIIEFFSSLCGLDAIPG | not soluble
18 | MKTIIREMVETIKQLFAQKQQMQEPVVANYEVSEIVEQKTLKKKEESEKTGEKTGKSNKWSQSLTLQLKEYLNDNFDFRYNNLTGATEYREKSGKNCFRPIDEREMNGMIVDARLEGIPCWRGDVPTMVLSNKVESYNPFHLYVKELPGWDGVDRVTPLLLRVSDNEIWLRGGRCWLRAMLSQWSGEERLHANVLTPVLISGKQGLSKSTFCRLLMPDSLRHYFIDNLNLAAGSSPEKKLVKNGLINLDEFDKIKESQQATLKNLLQMVNVPVFRGKRLGWVNESRLASFIATTNVYQVLIDSTGSRRFLCVEVLKPISEEPLEHKQIYAQLKEELKSGAPDYLNKEEEKALQKHNKAYYRQSLLEDVFHCCFRHPLETEKGIWLTTAEIFQVMRKFNSAALKEVSARQLGLKLSAMGYMAKHTSFGNRYYVFNLSAEKKDASL | not soluble
19 | MSLIFILGIFYYLTQPLKSNSVVFIPQGSISQIITYLKQNKYQMSNIDKYILFFLGHPQSGWINIGTKDLNRAEFLHKLTIAKAALQTITLIPGETSVIFLEQAAKQLGLDKDILLKEFQAQAPYDEGVFLPETYKIPKGITENLLIQMLLNHAEISNKKTSEKIFGDYNPKKWHQYIIIASVIQKEAANDNEMPIVASVIYNRLKKGMKLQMDGTLNYGIYSHVKVTPQRIRQDNSFYNTYKFTGLPKEAVCNVSLAAIRAAIFPLKTDYLYFVRDKNTGVHIFSTNIDDHNKAINLQKGKEGHHHHHH | not soluble
20 | MGSDKIHHHHHHACSQKQPIQATVTPSDPVVGEEIFFSDSTSGARIWYWEFGNNETSTQRSGYHRFKQKGVYKIRLTVNGNLERYFDVRVKEKTNAEDLHLVHIIAPKEAIQGENIIFRGEGHDEQWRWEFGETGMIDSREKTALYAYTEPGEYEVLLNTENTRYPIRHRINILPYYSENDSTDVMVLIGLDIKEKLQNIADGKPFNVNYNYVVDKYFNNNPNTLVIVNNNKYNDFYSYCQGLHHIGRKETIIQNVIVETEDEESGYITQITVMQIEKKK | not soluble
